Publication PMC6124691 (Cell, 2018)

Legend:
EXOSC3 = EXOSC3 (human, UniProt Q9NQT5 1-275); assay: cryo-EM structure
[1] = molecular target: T1, Human MTR4 (SKIV2L2, DOB1) (human, UniProt P42285 1-1042); assay: cryo-EM structure
T1 sequence: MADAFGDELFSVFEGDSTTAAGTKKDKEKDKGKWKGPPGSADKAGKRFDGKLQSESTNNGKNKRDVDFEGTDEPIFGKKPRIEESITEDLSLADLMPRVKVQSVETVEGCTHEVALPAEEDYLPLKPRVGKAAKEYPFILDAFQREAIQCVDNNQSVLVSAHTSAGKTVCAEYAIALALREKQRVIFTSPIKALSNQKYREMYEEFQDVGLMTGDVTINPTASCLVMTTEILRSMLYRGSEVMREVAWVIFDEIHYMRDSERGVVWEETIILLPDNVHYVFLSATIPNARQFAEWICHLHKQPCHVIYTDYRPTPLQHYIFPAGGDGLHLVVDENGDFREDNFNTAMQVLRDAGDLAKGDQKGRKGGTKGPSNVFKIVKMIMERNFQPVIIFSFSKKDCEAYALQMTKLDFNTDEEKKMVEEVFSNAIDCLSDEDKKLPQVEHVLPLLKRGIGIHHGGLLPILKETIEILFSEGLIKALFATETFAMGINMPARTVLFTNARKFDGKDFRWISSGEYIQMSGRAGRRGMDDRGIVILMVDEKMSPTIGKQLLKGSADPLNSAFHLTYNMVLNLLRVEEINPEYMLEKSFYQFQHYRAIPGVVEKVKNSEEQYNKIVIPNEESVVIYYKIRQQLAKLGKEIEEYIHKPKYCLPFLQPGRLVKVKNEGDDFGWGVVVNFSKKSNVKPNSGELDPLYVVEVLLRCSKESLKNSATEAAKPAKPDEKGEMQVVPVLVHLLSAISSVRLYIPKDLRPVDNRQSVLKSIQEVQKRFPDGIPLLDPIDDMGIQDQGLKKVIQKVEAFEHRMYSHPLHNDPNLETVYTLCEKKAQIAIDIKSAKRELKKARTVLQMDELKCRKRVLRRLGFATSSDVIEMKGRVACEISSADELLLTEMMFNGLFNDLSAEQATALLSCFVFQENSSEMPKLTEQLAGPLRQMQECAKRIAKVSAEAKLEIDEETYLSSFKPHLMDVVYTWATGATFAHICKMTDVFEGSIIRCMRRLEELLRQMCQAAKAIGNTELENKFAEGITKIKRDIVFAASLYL

EXOSC3, sequence (Q9NQT5 whole entry): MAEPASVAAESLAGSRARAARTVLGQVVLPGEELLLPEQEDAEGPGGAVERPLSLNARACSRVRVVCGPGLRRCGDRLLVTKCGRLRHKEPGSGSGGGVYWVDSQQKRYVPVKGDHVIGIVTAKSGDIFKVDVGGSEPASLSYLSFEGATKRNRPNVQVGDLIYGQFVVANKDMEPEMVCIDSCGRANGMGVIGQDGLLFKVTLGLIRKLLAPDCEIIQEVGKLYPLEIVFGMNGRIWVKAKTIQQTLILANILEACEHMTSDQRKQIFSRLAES

B1: Human M-Phase-Phosphoprotein 6 (MPP6) (natural protein)
chain: MAAERKTRLSKNLLRMKFMQRGLDSETKKQLEEEEKKIISEEHWYLDLPELKEKESFIIEEQSFLLCEDLLYGRMSFRGFNPEVEKLMLQMNAKHKAEEVEDETVELDVSDEEMARRYETLVGTIGKKFARKRDHANYEEDENGDITPIKAKKMFLKPQD
EXOSC3
  binding result: binds
[1]
  binding result: binds
